The values below come from patent US20230235013A1 (MABSOLVE, published 2023).

Substitutions are numbered along the chain they refer to. Numbers in names are those of the source.

B1: anti-CD20 human IgG1 L234G/L235D/G236R (antibody)
heavy: QVQLQQPGAELVKPGASVKMSCKASGYTFTSYNMHWVKQTPGRGLEWIGAIYPGNGDTSYNQKFKGKATLTADKSSSTAYMQLSSLTSEDSAVYYCARSTYYGGDWYFNVWGAGTTVTVSSASTKGPSVFPLAPSSKSTSGGTAALGCLVKDYFPEPVTVSWNSGALTSGVHTFPAVLQSSGLYSLSSVVTVPSSSLGTQTYICNVNHKPSNTKVDKKVEPKSCDKTHTCPPCPAPEGDRGPSVFLFPPKPKDTLMISRTPEVTCVVVDVSHEDPEVKFNWYVDGVEVHNAKTKPREEQYNSTYRVVSVLTVLHQDWLNGKEYKCKVSNKALPAPIEKTISKAKGQPREPQVYTLPPSRDELTKNQVSLTCLVKGFYPSDIAVEWESNGQPENNYKTTPPVLDSDGSFFLYSKLTVDKSRWQQGNVFSCSVMHEALHNHYTQKSLSLSPGK
light: QIVLSQSPAILSASPGEKVTMTCRASSSVSYIHWFQQKPGSSPKPWIYATSNLASGVPVRFSGSGSGTSYSLTISRVEAEDAATYYCQQWTSNPPTFGGGTKLEIKRTVAAPSVFIFPPSDEQLKSGTASVVCLLNNFYPREAKVQWKVDNALQSGNSQESVTEQDSKDSTYSLSSTLTLSKADYEKHKVYACEVTHQGLSSPVTKSFNRGEC
notes: also called 1-48; copies: 2 + 2
B2: anti-CD20 human IgG1 L234G/L235E/G236R (antibody)
heavy: B1 heavy with D239E
light: B1 light
notes: also called 1-49; copies: 2 + 2
B3: anti-CD20 human IgG1 L234G/L235K/G236R (antibody)
heavy: B1 heavy with D239K
light: B1 light
notes: also called 1-53; copies: 2 + 2
B4: anti-CD20 human IgG1 L234G/L235N/G236R (antibody)
heavy: B1 heavy with D239N
light: B1 light
notes: also called 1-56; copies: 2 + 2
B5: anti-CD20 human IgG1 L234G/L235R/G236R (antibody)
heavy: B1 heavy with D239R
light: B1 light
notes: also called 1-58; copies: 2 + 2
B6: anti-CD20 human IgG1 L234G/L235M/G236R (antibody)
heavy: B1 heavy with D239M
light: B1 light
notes: also called 1-55; copies: 2 + 2
B7: anti-CD20 human IgG1 L234G/L235T/G236R (antibody)
heavy: B1 heavy with D239T
light: B1 light
notes: also called 1-60; copies: 2 + 2
B8: anti-CD20 human IgG1 L234G/L235G/G236R (antibody)
heavy: B1 heavy with D239G
light: B1 light
notes: also called 1-50; copies: 2 + 2
B9: anti-CD20 human IgG1 L234G/L235Q/G236R (antibody)
heavy: B1 heavy with D239Q
light: B1 light
notes: also called 1-57; 2-18; copies: 2 + 2
B10: anti-CD20 human IgG1 L234H/L235A/G236R (antibody)
heavy: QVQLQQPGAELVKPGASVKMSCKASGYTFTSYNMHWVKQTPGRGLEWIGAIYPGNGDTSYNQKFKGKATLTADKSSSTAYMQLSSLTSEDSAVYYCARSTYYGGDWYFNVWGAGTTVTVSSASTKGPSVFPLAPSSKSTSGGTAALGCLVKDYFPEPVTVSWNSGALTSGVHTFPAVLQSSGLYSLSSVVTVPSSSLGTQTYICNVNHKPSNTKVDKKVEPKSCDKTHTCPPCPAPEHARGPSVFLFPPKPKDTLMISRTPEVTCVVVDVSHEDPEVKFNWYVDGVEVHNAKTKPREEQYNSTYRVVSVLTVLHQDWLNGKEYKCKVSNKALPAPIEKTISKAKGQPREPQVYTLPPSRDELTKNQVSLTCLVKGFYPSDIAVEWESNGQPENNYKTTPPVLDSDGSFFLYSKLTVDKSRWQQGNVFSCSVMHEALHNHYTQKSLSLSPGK
light: B1 light
notes: also called 1-62; copies: 2 + 2
B11: anti-CD20 human IgG1 L234G/L235I/G236R (antibody)
heavy: B1 heavy with D239I
light: B1 light
notes: also called 1-52; copies: 2 + 2
B12: anti-CD20 human IgG1 L234G/L235H/G236R (antibody)
heavy: B1 heavy with D239H
light: B1 light
notes: also called 1-51; 2-17; copies: 2 + 2

This experiment has as its target T1, Histidine-tagged recombinant human FcγRI (CD64) (human, UniProt P12314 16-288).
T1 construct: bought; also called Sino Biological Cat. No. 12056-H08H
Nature of the experiment: SPR, culture supernatant, captured His-FcγRI.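 Also: biacore T200 SPR at 25 °C, anti-His capture, supernatants of HEK293 cells expressing IgG1 Fc variants injected 1 min, reference-subtracted response read 55 s after injection start.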 For orientation: SPR reads the build-up and loss of mass on a sensor chip optically.
Regarding B1, the Mean binding response stood at 23.6 RU. Next, B2: 31.8 RU; B3: 27.4 RU. Turning to B4, the Mean binding response was 26.8 RU. In the case of B5 it was 29.3 RU. Consider B6, for which the Mean binding response is 23.2 RU. Next, B7: 26.5 RU. Next, B8: 29.5 RU; B9: 13.6 RU; B10: 29.4 RU. Next, B11: 29.2 RU. In the case of B12, the Mean binding response was determined as 19 RU.
